Data reported in US20250368734A1 (ANTENGENE BIOLOGICS, published 2025).

T1: mouse GPRC5D (mouse, UniProt Q9JIL6 1-344)
T1 construct: whole, on cells; HEK293T-mGPRC5D cells; also called mGPRC5D; murine GPRC5D
T1 sequence (looked up): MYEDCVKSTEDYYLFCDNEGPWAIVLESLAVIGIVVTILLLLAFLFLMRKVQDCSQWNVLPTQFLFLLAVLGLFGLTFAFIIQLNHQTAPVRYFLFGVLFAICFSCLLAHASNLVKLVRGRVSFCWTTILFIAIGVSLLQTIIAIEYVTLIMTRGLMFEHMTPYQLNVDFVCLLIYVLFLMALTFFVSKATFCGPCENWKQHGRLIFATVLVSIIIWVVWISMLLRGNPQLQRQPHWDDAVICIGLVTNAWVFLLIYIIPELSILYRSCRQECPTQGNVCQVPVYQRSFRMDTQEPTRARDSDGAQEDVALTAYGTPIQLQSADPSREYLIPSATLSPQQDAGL


Experiments:
[1] = biological target: T2, cynomolgus monkey GPRC5D (cynomolgus monkey); assay: FACS, HEK293T-cynoGPRC5D cells
T2 construct: whole, on cells; HEK293T-cynoGPRC5D cells; also called cynoGPRC5D
Text: (§1) The subcloning plates were screened by Mirrorball assay and the subclones with good binding ability were expanded to 24-wells for confirmation tests. The specificity and cross-reactivity of these subclones were confirmed with FACS analysis. Briefly, parental HEK293T, HEK293T cells stably over-expressing human GPRC5D protein (i.e., HEK293T-hGPRC5D), HEK293T cells stably over-expressing cynomolgus monkey GPRC5D protein (i.e., HEK293T-cynoGPRC5D), HEK293T cells stably over-expressing mouse GPRC5D protein (i.e., HEK293T-mGPRC5D), and OPM2 cells were incubated with antibodies produced by each subclone, respectively. Fluorescent dye-conjugated secondary antibody was used to detect the binding of the primary antibody with the cells. Median fluorescence intensity (MFI) was measured by FACS analysis,
(§2) As a result, 21 antibodies were discovered with unique sequences showing positive binding with HEK293T-hGPRC5D and OPM2 cells. Among which, some clones could also bind with HEK293T-cynoGPRC5D and/or HEK293T-mGPRC5D. […] ATG596 was a positive human IgG1 control antibody which comprises a VH region having an amino acid sequence as set forth in SEQ ID NO: 199, and a VL region having an amino acid sequence as set forth in SEQ ID NO: 200.

[2] = biological target: T1, mouse GPRC5D; assay: FACS, HEK293T-mGPRC5D cells
Text: as §1, §2

[3] = biological target: T3, human GPRC5D (human, UniProt Q9NZD1 1-345); assay: FACS, OPM-2 cells
T3 construct: whole, on cells; also called hGPRC5D; G-protein coupled receptor family C group 5 member D
Text: as §1, §2

[4] = biological target: T3, human GPRC5D; assay: FACS, HEK293T-hGPRC5D cells
Text: as §1, §2

[5] = biological target: T2, cynomolgus monkey GPRC5D; assay: FACS, HEK293T-cynoGPRC5D cells; remark: listed apart in the source
[6] = biological target: T1, mouse GPRC5D; assay: FACS, HEK293T-mGPRC5D cells; remark: listed apart in the source
[7] = biological target: T3, human GPRC5D; assay: FACS, CHOS-hGPRC5D cells

T3 sequence (Q9NZD1 whole entry): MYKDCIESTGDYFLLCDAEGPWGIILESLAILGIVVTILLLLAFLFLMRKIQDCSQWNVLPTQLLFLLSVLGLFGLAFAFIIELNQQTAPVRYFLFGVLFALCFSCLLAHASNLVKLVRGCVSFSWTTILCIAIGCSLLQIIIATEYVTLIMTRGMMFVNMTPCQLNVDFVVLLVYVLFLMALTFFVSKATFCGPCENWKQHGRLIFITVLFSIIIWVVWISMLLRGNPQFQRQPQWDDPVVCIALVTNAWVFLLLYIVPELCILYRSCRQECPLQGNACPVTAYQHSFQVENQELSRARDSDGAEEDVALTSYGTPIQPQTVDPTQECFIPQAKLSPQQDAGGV

Binder	% Positive [1] [%]	MFI [1]	% Positive [2] [%]	MFI [2]	% Positive [3] [%]	MFI [3]	% Positive [4] [%]	MFI [4]	EC50 [5] [nM]	Top [5]	EC50 [6] [nM]	Top [6]	EC50 [7] [nM]	Top [7]
96C9E7 (antibody, V domains shown, Mouse monoclonal antibody from hybridoma subclone) VH: EVQLQQSGPELVKPGASVKMSCKASGYTFTYYILHWVKQKPGQGLEWIGYFNPYNDGNKFNERFRGKATLTSDKSSSTAYMELNSLTSEDSAVYFCARGGVRRYFDVWGAGTTVTVSS VL: DIQMTQSPSSLSASLGERVSLTCRASQDIGSNLNWLQQEPDGTIKRLISATFSLDSGVPKRFSGSRSGSDYSLTISSLESEDFVNYYCLQYASFPYTFGGGTKLEIK	71.7	4020	49.2	202	99.9	1930	58.8	680						
90G6H3 (antibody, V domains shown, Mouse monoclonal antibody from hybridoma subclone) VH: QAYLQQSGAELVRSGASVKMSCKASGYTFTSYIMHWVKQTPGQGLEWIGYIYPGNGGTNYNQKFKDKATLSADTSSSTAYMQINSLTSEDSAVYFCARWGLRQGFAYWGQGTLVSVSA VL: DIVMTQSQKFMSTSVGDRVSVTCKASQNVGGNVAWYQQKPGQSPKALIYSTSYRNSGVPDRFTGSGSGTDFTLTISNVQSEDLAEYFCQQYNSYPFTFGSGTKLEIR	99.4	11400	87.4	2230	97.3	712	96.7	4940						
89F11E3 (antibody, V domains shown, Mouse monoclonal antibody from hybridoma subclone) VH: QVQLQQSGAELARPGASVKMSCKASGYTFTSSTIHWVKQRPGQGLAWIGYIVPSTGYTNYNQKFKDKATLTADKSSSTAYMQLTSLTSEDSAVYYCARSDGYPFGYSMAYWGQGTSVTVSS VL: DIQMNQSPSSLSASLGDTITITCHASQNINVWLSWYHQKPGNIPKLLIYKASNLHTGVPSRFSGSGSGTGFTLTISRLQPEDIATYYCQQGQSYPFTFGSGTKLEIK	98.8	16500	74.6	1100	98.1	999	96.7	19200						
87A3G8 (antibody, V domains shown, Mouse monoclonal antibody from hybridoma subclone) VH: QVQLKESGPGLVAPSQSLSITCTVSGFSLSSYSVYWVRQPPGKGLEWLGVIWAGGSTNYNSALMSRLSINKDKSKSQVFLKMNSLQTDDSAIYYCAMRWLPRGLDFWGQGTSVTVSS VL: DIVMTQSHKFMSTSVGDRVSITCKASQDVGTAVAWYQQKPGQSPKLLIYWASTRHTGVPDRFTGSGSGTDFTLTISNVQSEDLADYFCQQYSTYYTFGGGTKLEIK	76.7	3960	46.2	178	92.7	451	88.6	7380						
ch26E2H6 (antibody, V domains shown) VH: EVQLVESGGDLVKPGGSLKLSCAASGFTFSSYGMSWVRQTPDKRLEWVATISSGGSYTYYPDSVKGRFTISRDNAKNTLYLQMSSLKSEDTAMYYCARHATDYWGQGTTLTVSS VL: QIVLTQSPAIMSASPGEKVTMTCSASSSVSYMHWYQQKSGTSPKRWIYDTSKLASGVPARFSGSGSGTSYSLTISSMEAEDAATYYCQQWSSNPLTFGAGTKLELK									40.4	51300	184	45700	3.02	2910
ch98A3A8 (antibody, V domains shown) VH: EVQLQQSGPELVKPGASVKMSCKASGYTFTYYVTHWVRQKPGQGLEWIGYINPYNDGTMFNEKFKGKATLTSDKSSSTAYMEFSSLTSEDSAVFYCARGGVRRYFDVWGAGTTVTVSS VL: DIQMTQSPSSLSASLGERVSLTCRASQDIGSNLNWLQQKPDGTIKRLIYATSSLDSGVPKRFSGSRSGSDYSLTINSLESEDFVDYYCLQYASFPYTFGGGTKLEIK									9.78	46800	69.6	26000	1.39	2970
